This is an account of results in patent US20180022822A1, “NOVEL ANTI-FIBROBLAST ACTIVATION PROTEIN (FAP) BINDING AGENTS AND USES THEREOF” (Mabimmune Diagnostics AG, priority 2016, published 2018).

Assay [1] concerns human invasive ductal carcinoma and invasive lobular carcinoma sections. The assay can be described thus: confocal immunofluorescence on human carcinoma cryosections. To be noted: Cy3 labelled antibody. The method, then:
NI-206.82C2 was labelled with Cyanine 3 for fluorescent imaging (Cy3 conjugation kit: Innova Biosciences, 340-0030) and antibody labelling was validated using a spectophotometer. Cryosections from human invasive ductal carcinoma tissues (FIG. 9, A) and invasive lobular carcinoma (FIG. 9, B) were fixed for 5 minutes in ice cold acetone and allowed to dry for 10 minutes before washing in PBS. The sections were then incubated for 1 hr at room temperature in 5% BSA in PBS. The tissue sections were then incubated with Cyanine 3 prelabelled antibodies overnight at 4° C., and then washed three times in PBS before incubation with DAPI at 0.5 μg/mL. Sections were then washed three additional times in PBS and mounted in Lisbeth's mounting medium before imaging on a SP8 confocal microscope (Leica Microsystems).

Assay [2] has as its target T1, directly coated FAP (FAP) (Homo sapiens, UniProt Q12884).
T1 sequence (Q12884 1-760): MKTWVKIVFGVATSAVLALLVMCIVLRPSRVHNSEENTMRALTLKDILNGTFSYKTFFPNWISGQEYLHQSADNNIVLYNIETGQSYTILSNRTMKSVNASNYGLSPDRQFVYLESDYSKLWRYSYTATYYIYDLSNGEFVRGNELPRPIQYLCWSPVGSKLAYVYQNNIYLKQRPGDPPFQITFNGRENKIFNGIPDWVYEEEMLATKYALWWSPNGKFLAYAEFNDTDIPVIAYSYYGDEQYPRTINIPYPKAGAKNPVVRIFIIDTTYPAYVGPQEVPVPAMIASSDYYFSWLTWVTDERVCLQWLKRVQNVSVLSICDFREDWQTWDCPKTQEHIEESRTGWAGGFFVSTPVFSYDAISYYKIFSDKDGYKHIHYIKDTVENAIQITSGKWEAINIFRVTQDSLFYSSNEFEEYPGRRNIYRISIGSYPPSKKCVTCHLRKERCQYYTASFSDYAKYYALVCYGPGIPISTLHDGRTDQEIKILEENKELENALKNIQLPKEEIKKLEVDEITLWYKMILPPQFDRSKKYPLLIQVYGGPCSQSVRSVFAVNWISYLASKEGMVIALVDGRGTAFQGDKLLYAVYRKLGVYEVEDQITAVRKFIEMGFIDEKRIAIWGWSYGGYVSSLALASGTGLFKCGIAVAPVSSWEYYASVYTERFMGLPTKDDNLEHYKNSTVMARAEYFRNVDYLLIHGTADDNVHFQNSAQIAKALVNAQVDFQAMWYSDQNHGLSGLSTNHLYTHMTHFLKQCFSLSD
The assay can be described thus: direct ELISA on directly coated FAP. The assay is classed as binding. Conditions: ELISA, varying antibody concentrations. The method, then: (§1) ELISA assays were performed with varying antibody concentrations to validate the binding of the exemplary antibodies of the present invention to FAP and to be able to determine their half maximal effective concentration (EC50). For the exemplary recombinant human NI-206-18H2, NI-206-20A8, NI-206-6D3, ‘NI-206-14C5, NI-206-34C11, NI-206.82C2, NI-206.59B4, NI-206.22F7, NI-206.27E8, NI-206.12G4 and NI-206.17A6 antibodies, 96-well microplates (Costar, Corning, USA) were coated with FAP, with a mixture of the 3 peptides or with BSA (Sigma-Aldrich, Buchs, Switzerland) diluted to a concentration of 5 μg/ml in carbonate ELISA coating buffer (15 mM Na2CO3, 35 mM NaHCO3, pH 9.4) for the direct ELISA. For the capture ELISA, the microplates were coated with mouse anti-His monoclonal antibody (Clontech) diluted to a concentration of 3 μg/ml in PBS, the plates were then blocked, FAP or BSA were diluted to a concentration of 2 μg/ml in PBS and added to the plates to be captured. The binding efficiency of the antibodies was then tested.
(§2) The EC50 values were estimated by a non-linear regression using GraphPad Prism (San Diego, USA) software. […] The binding of NI-206.12G4 towards sFAP was not tested.
In general terms: An ELISA detects its analyte on a solid surface through an enzyme-linked reagent.

For assay [3], the system named is directly coated FAP peptides mixture (cFAP). Nature of the assay: direct ELISA on coated mixture of FAP peptides. To be noted: peptides 378-392, 622-636, 721-736. The assay is classed as binding, human. The method, then:
as §1, §2

A further assay addresses T2, captured FAP (sFAP) (Homo sapiens, UniProt Q12884).
T2 sequence (Q12884 1-760): T1 sequence (Q12884 1-760)
Nature of the assay: capture ELISA, FAP captured via his-tag with coated anti-His antibody. It counts as binding. To be noted: ELISA, varying antibody concentrations. Here is the method: as §1, §2

For another assay, the target named is T3, BSA (Bos taurus, UniProt P02769).
T3 construct: purchased Sigma-Aldrich
T3 sequence (P02769 25-607): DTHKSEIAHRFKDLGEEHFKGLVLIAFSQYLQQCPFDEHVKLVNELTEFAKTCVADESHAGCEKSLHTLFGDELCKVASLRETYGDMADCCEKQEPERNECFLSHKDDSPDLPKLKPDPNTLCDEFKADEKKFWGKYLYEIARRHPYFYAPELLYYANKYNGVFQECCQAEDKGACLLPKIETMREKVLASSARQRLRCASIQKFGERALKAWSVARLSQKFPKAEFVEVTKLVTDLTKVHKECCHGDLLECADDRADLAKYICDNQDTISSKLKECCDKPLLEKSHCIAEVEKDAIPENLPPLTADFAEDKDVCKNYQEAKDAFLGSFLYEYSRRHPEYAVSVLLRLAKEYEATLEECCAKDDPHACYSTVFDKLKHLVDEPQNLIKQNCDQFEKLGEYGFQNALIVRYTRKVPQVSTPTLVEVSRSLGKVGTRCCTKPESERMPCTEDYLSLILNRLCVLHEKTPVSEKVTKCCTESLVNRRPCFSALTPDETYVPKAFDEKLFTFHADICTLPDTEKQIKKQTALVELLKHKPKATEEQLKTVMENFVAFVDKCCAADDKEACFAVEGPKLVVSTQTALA
The assay can be described thus: ELISA control binding to BSA. Set-up: species or system bovine. The method, then:
as §1

B1: NI-206.82C2: human-derived recombinant anti-FAP antibody; VH SEQ ID NO: 2 or 4 (PIMC), VL SEQ ID NO: 6 (antibody, V domains shown)
VH: QVQLQQSGPGLVKPSQTLSLTCAISGDSVSSNSVTWNWIRQSPSRGLEWLGRTYYRSKWYNDYAVSVKGRITINPDTSKNQFYLQLKSVTPEDAAVYYCARDSSILYGDYWGQGTLVTVSS
VL: QAVLTQPSSLSASPGASASLTCTLPSGINVGTYRIFWFQQKPGSPPQYLLSYKSDSDNHQGSGVPSRFSGSKDASANAGILLISGLQSEDEADYYCMIWHSSAWVFGGGTKLTVL
Take B1: the “binding to human invasive ductal and invasive lobular carcinoma sections” value in assay [1] is recorded as “specifically binds”. Besides, the “binding to the directly coated FAP” value in assay [2] was “less efficiently”. In addition, in assay [3], the “EC50 to the directly coated FAP peptides mixture (cFAP)” value (from here on “EC50”) is given as “did not show any binding”. Besides, in the assay with captured FAP (sFAP), the “binding to the captured FAP” value was “specifically and strongly binds”. For the same molecule, in the assay with BSA, the “binding to BSA” value is “does not bind”.

B2: NI-206.18H2: human-derived recombinant anti-FAP antibody; VH SEQ ID NO: 41, VL SEQ ID NO: 43 (antibody, listed as Homo sapiens, V domains shown)
VH: QVQLQESGPRLVKPSETLSLTCTVSGYSISNGYYWGWIRQPPGQGLEWIASVWHSGNTYHNPSLKSRVTILVDTLKNQFSLNLKSVTAADTALYYCARSYTRNDVGAFETWGQGTMVTVSS
VL: SYELTQPPSVSVSPGQTARIACSGDELPKRYAYWYQQKSGQAPVLVMYEDTKRPSGIPERLSGSSSGTVTTLTISGAQVEDEADYYCYSTAPSGNHTFVFGTGTRVTVL
As to B2, the “binding to the directly coated FAP” value in assay [2] is “specifically, strongly and similarly bind”. In assay [3], the “EC50” value is “did not show any binding”. Also, the “binding to the captured FAP” value with captured FAP (sFAP) is “specifically, strongly and similarly bind”. The “binding to BSA” value with BSA is on record as “does not bind”.

B3: NI-206.6D3: human-derived recombinant anti-FAP antibody; VH SEQ ID NO: 49, VL SEQ ID NO: 51 (antibody, listed as Homo sapiens, V domains shown)
VH: EVQLVESGGGLVKPGESLRLSCAASGFTFSKAWMNWVRQGPGKGLEWVGRVKSKTDGGTTDYAAPVKGRFTISRDDSKDTVFLQMNSLKTEDTAVYYCSIQFIVVGDRGRDDQYMDVWGKGTTVTVSS
VL: SYVLTQPPSVSVSPGQTARITCSGDALPKQYAFWYQQKPGQAPVIMIYKDNQRPSGIPERFSGSSSGTTVTLTISGVQTEDEADYYCQSADSTNTHVVFGGGTKLTVL
For B3, the “binding to the directly coated FAP” value in assay [2] was “strongly and similarly bind”. In addition, the “EC50” value in assay [3] is listed as “did not show any binding”. The “binding to the captured FAP” value with captured FAP (sFAP) was “strongly and similarly bind”.
